In patent US20200199213A1 (Eli Lilly, published 2020):
Read-outs that look alike come from different tables or passages of the source.

Tests used:
mouse ANGPTL3/8 complex [1] = target: T1, mouse ANGPTL3/8 complex (mouse, UniProt Q9R182 17-455; Q8R1L8 16-198, limits assumed); experiment: cell-based or functional assay
T1 sequence (looked up) 1: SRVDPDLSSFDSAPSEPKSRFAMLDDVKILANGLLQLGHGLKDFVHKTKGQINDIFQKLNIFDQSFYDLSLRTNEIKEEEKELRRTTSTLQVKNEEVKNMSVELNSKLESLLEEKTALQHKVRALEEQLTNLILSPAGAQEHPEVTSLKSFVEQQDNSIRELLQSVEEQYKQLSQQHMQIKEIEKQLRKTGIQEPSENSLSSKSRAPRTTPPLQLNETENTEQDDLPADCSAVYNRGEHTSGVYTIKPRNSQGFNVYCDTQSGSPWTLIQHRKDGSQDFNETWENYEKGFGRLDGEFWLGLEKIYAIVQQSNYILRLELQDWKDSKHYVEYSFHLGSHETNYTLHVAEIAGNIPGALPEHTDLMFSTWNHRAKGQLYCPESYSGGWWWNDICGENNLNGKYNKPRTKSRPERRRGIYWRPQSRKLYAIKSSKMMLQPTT
T1 sequence (looked up) 2: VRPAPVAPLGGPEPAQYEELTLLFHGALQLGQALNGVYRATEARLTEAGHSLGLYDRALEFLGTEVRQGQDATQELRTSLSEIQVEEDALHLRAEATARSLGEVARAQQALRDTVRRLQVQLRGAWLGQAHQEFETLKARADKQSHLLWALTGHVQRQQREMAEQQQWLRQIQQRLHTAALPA

human ANGPTL3/8 complex [2] = target: T2, human ANGPTL3/8 complex (human, UniProt Q9Y5C1 17-460; Q6UXH0 22-198, limits assumed); experiment: cell-based or functional assay
T2 sequence 1: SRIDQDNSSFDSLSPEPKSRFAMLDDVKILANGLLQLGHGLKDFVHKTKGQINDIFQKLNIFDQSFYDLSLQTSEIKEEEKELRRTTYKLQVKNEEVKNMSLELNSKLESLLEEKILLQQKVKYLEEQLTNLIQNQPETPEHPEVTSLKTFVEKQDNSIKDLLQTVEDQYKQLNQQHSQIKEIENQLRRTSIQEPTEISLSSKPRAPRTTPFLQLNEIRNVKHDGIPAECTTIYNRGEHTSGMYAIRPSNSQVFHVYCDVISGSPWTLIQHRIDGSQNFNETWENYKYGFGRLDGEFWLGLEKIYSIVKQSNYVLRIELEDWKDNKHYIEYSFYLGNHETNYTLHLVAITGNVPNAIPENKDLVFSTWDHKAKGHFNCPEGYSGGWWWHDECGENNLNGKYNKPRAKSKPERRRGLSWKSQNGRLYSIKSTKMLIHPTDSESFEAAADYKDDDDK
T2 sequence 2: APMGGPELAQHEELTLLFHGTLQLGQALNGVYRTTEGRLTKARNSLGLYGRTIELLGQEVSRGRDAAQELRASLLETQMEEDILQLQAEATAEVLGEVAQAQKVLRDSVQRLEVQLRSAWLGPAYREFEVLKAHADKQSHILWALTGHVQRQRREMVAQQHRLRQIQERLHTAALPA

rat ANGPTL3/8 complex = rat ANGPTL3/8 complex (rat, UniProt F7FHP0 17-446); experiment: cell-based or functional assay
[3] = target: T3, cynomolgus ANGPTL3/8 complex (cynomolgus, UniProt A0A2K5UDC5 17-460; A0A2K5WWS3 22-198); experiment: cell-based or functional assay
T3 sequence 1: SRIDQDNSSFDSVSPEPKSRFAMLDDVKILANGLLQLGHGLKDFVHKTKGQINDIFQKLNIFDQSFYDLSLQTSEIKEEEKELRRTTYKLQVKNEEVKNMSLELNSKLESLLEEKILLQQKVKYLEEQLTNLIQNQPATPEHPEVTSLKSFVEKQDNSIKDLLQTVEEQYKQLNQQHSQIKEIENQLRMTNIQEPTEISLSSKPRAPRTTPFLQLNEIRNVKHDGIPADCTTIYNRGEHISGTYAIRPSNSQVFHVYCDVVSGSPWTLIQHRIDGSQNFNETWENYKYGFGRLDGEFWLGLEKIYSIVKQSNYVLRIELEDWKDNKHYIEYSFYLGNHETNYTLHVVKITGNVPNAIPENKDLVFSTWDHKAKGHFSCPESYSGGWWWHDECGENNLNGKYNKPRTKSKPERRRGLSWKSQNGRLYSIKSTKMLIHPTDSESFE
T3 sequence 2: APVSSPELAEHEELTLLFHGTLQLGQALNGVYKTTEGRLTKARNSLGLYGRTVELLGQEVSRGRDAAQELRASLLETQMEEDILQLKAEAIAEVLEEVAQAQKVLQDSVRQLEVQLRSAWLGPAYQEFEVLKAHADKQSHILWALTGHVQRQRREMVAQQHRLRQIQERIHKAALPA

mouse ANGPTL3/8 complex [4] = target: T1, mouse ANGPTL3/8 complex; experiment: SPR, Biacore T200; Ab captured on Human Fab Binder, complex injected; pH 7.4, 25 C
human ANGPTL3/8 complex [5] = target: T2, human ANGPTL3/8 complex; experiment: as above
[6] = target: T3, cynomolgus ANGPTL3/8 complex; experiment: as above
human ANGPTL3/8 complex [7] = target: T2, human ANGPTL3/8 complex; experiment: as above; remark: listed apart in the source

Sequence of rat ANGPTL3/8 complex (F7FHP0 entry or part of it, one chain of several): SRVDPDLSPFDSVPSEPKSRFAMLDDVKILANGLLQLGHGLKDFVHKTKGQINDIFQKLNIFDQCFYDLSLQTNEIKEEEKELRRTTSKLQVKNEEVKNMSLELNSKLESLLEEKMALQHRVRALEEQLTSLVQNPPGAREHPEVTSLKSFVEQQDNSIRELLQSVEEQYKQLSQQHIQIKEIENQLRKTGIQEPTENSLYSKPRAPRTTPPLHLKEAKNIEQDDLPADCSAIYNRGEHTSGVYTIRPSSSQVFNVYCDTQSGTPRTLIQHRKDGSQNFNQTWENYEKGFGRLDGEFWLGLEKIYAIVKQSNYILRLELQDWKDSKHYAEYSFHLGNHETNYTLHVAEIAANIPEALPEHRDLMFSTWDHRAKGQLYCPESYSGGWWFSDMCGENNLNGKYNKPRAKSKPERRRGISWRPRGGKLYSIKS

B1: anti-ANGPTL3/8 complex Ab having a LC of SEQ ID NO:5 and a HC of SEQ ID NO:6 (antibody, human IgG4 S228P, kappa, F234A L235A, V domains shown)
VH: QVTLKESGPTLVKPTQTLTLTCTFSGFSLSISGVGVGWIRQPPGKALEWLALIYRNDDKRYSPSLKSRLTITKDTSKNQVVLTLTNMDPVDTATYYCARTYSSGWYGNWFDPWGQGTLVTVSS
VL: DIVMTQTPLSLPVTPGEPASISCRSSQSLLDSDDGNTYLDWYLQKPGQSPQLLIYMLSYRASGVPDRFSGSGSGTDFTLKISRVEAEDVGIYYCMQRIEFPLTFGGGTKVEIKR
notes: In the ELISA assays tested as IgG from CHO supernatants; also called the Ab
Mouse ANGPTL3/8 complex [1]
  % Max Derepression of LPL: 103%
  Ab EC50 (nM), derepression of LPL: 1.38 nM
Human ANGPTL3/8 complex [2]
  % Max Derepression of LPL: 102%
  Ab EC50 (nM), derepression of LPL: 0.28 nM
Rat ANGPTL3/8 complex
  % Max Derepression of LPL: 105%
  Ab EC50 (nM), derepression of LPL: 2.77 nM
[3]
  % Max Derepression of LPL: 96%
  Ab EC50 (nM), derepression of LPL: 1.31 nM

B2: Ab with LC variant having a D33A mutation (SEQ ID NO:22) and a HC of SEQ ID NO:6 (antibody, human IgG4 S228P, kappa, F234A L235A, V domains shown)
VH: QVTLKESGPTLVKPTQTLTLTCTFSGFSLSISGVGVGWIRQPPGKALEWLALIYRNDDKRYSPSLKSRLTITKDTSKNQVVLTLTNMDPVDTATYYCARTYSSGWYGNWFDPWGQGTLVTVSS
VL: DIVMTQTPLSLPVTPGEPASISCRSSQSLLDSADGNTYLDWYLQKPGQSPQLLIYMLSYRASGVPDRFSGSGSGTDFTLKISRVEAEDVGIYYCMQRIEFPLTFGGGTKVEIKR
notes: also called D33A Variant Ab; D33A Ab
Mouse ANGPTL3/8 complex [4]
  Kd: 680 pM
  koff: 0.000347 s⁻¹
  kon: 515000 M⁻¹ s⁻¹
Human ANGPTL3/8 complex [5]
  Kd: 201 pM
  koff: 9.19e-05 s⁻¹
  kon: 457000 M⁻¹ s⁻¹
[6]
  Kd: 609 pM
  koff: 0.000265 s⁻¹
  kon: 435000 M⁻¹ s⁻¹

B3: Ab with LC variant having a E99Q mutation (SEQ ID NO:25) and a HC of SEQ ID NO:6 (antibody, human IgG4 S228P, kappa, F234A L235A, V domains shown)
VH: QVTLKESGPTLVKPTQTLTLTCTFSGFSLSISGVGVGWIRQPPGKALEWLALIYRNDDKRYSPSLKSRLTITKDTSKNQVVLTLTNMDPVDTATYYCARTYSSGWYGNWFDPWGQGTLVTVSS
VL: DIVMTQTPLSLPVTPGEPASISCRSSQSLLDSDDGNTYLDWYLQKPGQSPQLLIYMLSYRASGVPDRFSGSGSGTDFTLKISRVEAEDVGIYYCMQRIQFPLTFGGGTKVEIKR
notes: also called E99Q Variant Ab; E99Q Ab
Human ANGPTL3/8 complex [7]
  Kd: 48.4 pM
  koff: 3.26e-05 s⁻¹
  kon: 674000 M⁻¹ s⁻¹
